Assay in all cases: NMR
Holding throughout (conditions): 300 K; not stated; 20 mM sodium phosphate; phosphoric acid (20 %) added for lower pH, NaOH (1 M) for higher pH; samples dialysed overnight; folded isolated PsbO-β, 9-14 mg/mL, free of PSII partners

The target of series [1] is Asp102 (UniProt position 128, …).
For series [2], the target named is Glu98 (UniProt position 124, …).
The target of series [3] is Glu145 (UniProt position 171, …).
In series [4] the target is Asp205 (UniProt position 231, …).
Series [5] concerns the target Asp33 (UniProt position 59, …).
In series [6] the target is Asp90 (UniProt position 116, …).
Series [7] has as its target Asp141 (UniProt position 167, …).
The target of series [8] is Glu216 (UniProt position 242, …).
Series [9] has as its target Glu114 (UniProt position 140, …).
Series [10] concerns the target Glu54 (UniProt position 80, …).
Series [11] has as its target Asp79 (UniProt position 105, …).
Series [12] has as its target Asp24 (UniProt position 50, …).
Series [13] concerns the target Glu232 (UniProt position 258, …).
The target of series [14] is Glu84 (UniProt position 110, …).
Series [15] deals with Asp23 (UniProt position 49, …).
Series [16] deals with Glu64 (UniProt position 90, …).
In series [17] the target is Glu218 (UniProt position 244, …).
Series [18] addresses Glu210 (UniProt position 236, …).
Series [19] deals with Glu244 (UniProt position 270, FYASIEPA---).
Series [20] addresses Asp99 (UniProt position 125, …).
For series [21], the target named is Glu74 (UniProt position 100, …).

pKa data for one protein are collected here from paper PMC7318136.

B1: PsbO-β (β-barrel construct of photosystem II manganese-stabilizing protein PsbO) (Thermosynechococcus elongatus; deletion of 1-15; deletion of 55-63 (replaced … (protein)
chain: MNHKCPTLDDTARGAYPIDSSQTYRIARLCLQPTTFLVKENGEFVPTKLVTRETTSLDQIQGELKVNSDGSLTFVEEDGIDFQPVTVQMAGGERIPLLFTVKNLVASTQPNVTSITTSTDFKGEFNVNGTKGQISLNVAKVDGRTGEIAGTFESEQLSNGHEVKIQGVFYASIEPA
By pKa is commonly meant the negative logarithm of the acid dissociation constant. Take B1: the pKa in [1] is reported as above 7; in [2], 4.99±0.04; in series [3], 4.52±0.04; in series [4], 3.45±0.09; in series [5], 3.47±0.05; in series [6] it was 1.56±0.14. Also, the pKa is given as 4.89±0.03 in series [7]; 3.91±0.10 in series [8]; 3.81±0.08 in [9]; 4.47±0.06 in series [10]; below 2.5 in [11]; 3.06±0.03 in series [12]. Also, the pKa in [13] is recorded as 4.20±0.10; in [14], 4.64±0.07; in [15], 3.41±0.05; in series [16], 4.17±0.04; in series [17] it was 5.13±0.07; in [18], 2.66±0.12. Also, the values for the pKa in series [19], in series [20] and in series [21] were 4.97±0.08, below 5 and 3.37±0.05, respectively.
